Assay results taken from patent US20250092108A1 (published 2025).
Read-outs that look alike come from different tables or passages of the source. Each block holds one binder with its values, some of them ahead of it.

B1: CD25 (receptor)
chain: ELCDDDPPEIPHATFKAMAYKEGTMLNCECKRGFRRIKSGSLYMLCTGNSSHSSWDNQCQCTSSATRNTTKQVTPQPEEQKERKTTEMQSPMQPVDQASLPGHCREPPPWENEATERIYHFVVGQMVYYQCVQGYRALHRGPAESVCKMTHGKTRWTQPQLICTGEMETSQFPGEEKPQASPEGRPESETSC

Key:
24640 = assay: Octet
24639 = assay: Octet
24729 = assay: Octet
24641 = assay: Octet
24636 = assay: Octet
24732 = assay: Octet
24725 = assay: Octet
24643 = assay: Octet
24728 = assay: Octet
XENP26104 = assay: Octet
XENP26088 = assay: Octet
XENP26086 = assay: Octet
XENP26093 = assay: Octet
XENP26089 = assay: Octet
XENP26108 = assay: Octet
XENP26092 = assay: Octet
XENP26096 = assay: Octet
human CD25 (IL-2Rα) [1] = molecular target: T1, human CD25 (IL-2Rα) (human, UniProt P01589 22-213); assay: Octet
T1 chain: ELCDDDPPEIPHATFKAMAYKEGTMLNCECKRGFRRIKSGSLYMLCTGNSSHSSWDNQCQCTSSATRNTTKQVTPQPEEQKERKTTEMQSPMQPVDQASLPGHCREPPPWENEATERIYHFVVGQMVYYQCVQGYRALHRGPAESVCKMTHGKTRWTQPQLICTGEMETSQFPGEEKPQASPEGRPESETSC

CD122:CD132 [2] = assay: Octet
human CD25 (IL-2Rα) [3] = molecular target: T1, human CD25 (IL-2Rα); assay: Biacore; pH 6.0
human CD25 (IL-2Rα) [4] = molecular target: T1, human CD25 (IL-2Rα); assay: Biacore; pH 7.4
CD122:CD132 [5] = assay: Octet; remark: listed apart in the source
CD25 = molecular target: B1; assay: Octet

Kd (human CD25 (IL-2Rα) [1]): 14.1 nM | Kd (CD122:CD132 [2]): 36.4 nM
B2: XENP26105 (Fc fusion)
chain 1: EPKSSDKTHTCPPCPAPPVAGPSVFLFPPKPKDTLMISRTPEVTCVVVDVKHEDPEVKFNWYVDGVEVHNAKTKPREEEYNSTYRVVSVLTVLHQDWLNGKEYKCKVSNKALPAPIEKTISKAKGQPREPQVYTLPPSREEMTKNQVSLTCDVSGFYPSDIAVEWESDGQPENNYKTTPPVLDSDGSFFLYSKLTVDKSRWEQGDVFSCSVMHEALHNHYTQKSLSLSPGK
chain 2: APASSSTKKTQLQLEHLLLNLQMILNGINNYKNPKLRRMLTFKFYMPKKATELKHLQCLEEELKPLEEVLNLAQSKNFHLRPRDLISNINVIVLELKGSETTFMCEYADETATIVEFLNRWITFSQSIISTLTEPKSSDKTHTCPPCPAPPVAGPSVFLFPPKPKDTLMISRTPEVTCVVVDVKHEDPEVKFNWYVDGVEVHNAKTKPREEQYNSTYRVVSVLTVLHQDWLNGKEYKCKVSNKALPAPIEKTISKAKGQPREPQVYTLPPSREQMTKNQVKLTCLVKGFYPSDIAVEWESNGQPENNYKTTPPVLDSDGSFFLYSKLTVDKSRWQQGNVFSCSVMHEALHNHYTQKSLSLSPGK

Kd (human CD25 (IL-2Rα) [3]): 16.8 nM | Kd (human CD25 (IL-2Rα) [4]): 9.4 nM
B4: XENP14381 (prior art IL-2 variant, mutant 2-4 with Q126T, with R38L) (ligand)
chain: APTSSSTKKTQLQLEHLLLDLQMILNGISNHKNPRLALMLTFKFYMPEKATELKHLQCLEEELKPLEEALRLAPSKNFHLRPRDLISDVNVIVLELKGSETTFMCEYADETATIVEFLNRWITFSTSIISTLTHHHHHHHH

The next lines start with the binder.

Binder: B1
Kd 24640: 1.14 nM | Kd 24639: 8.04 nM | Kd 24729: 25.5 nM | Kd 24641: 12.7 nM | Kd 24636: 14.5 nM | Kd 24732: 91.2 nM | Kd 24725: 19.6 nM | Kd 24643: 26.6 nM | Kd 24728: 41.8 nM | Kd (XENP26104): 14.7 nM | Kd (XENP26088): 16.6 nM | Kd (XENP26086): 16.9 nM | Kd (XENP26093): 21.3 nM | Kd (XENP26089): 14.4 nM | Kd (XENP26108): 27.7 nM | Kd (XENP26092): 26.4 nM | Kd (XENP26096): 39.2 nM

B3: XENP14277 (prior art IL-2 variant, mutant 2-4 with Q126T as described in WO 2009/061853, without R38L) (ligand)
chain: APTSSSTKKTQLQLEHLLLDLQMILNGISNHKNPRLARMLTFKFYMPEKATELKHLQCLEEELKPLEEALRLAPSKNFHLRPRDLISDVNVIVLELKGSETTFMCEYADETATIVEFLNRWITFSTSIISTLTHHHHHHHH
Kd (human CD25 (IL-2Rα) [3]): 190 nM | Kd (human CD25 (IL-2Rα) [4]): 2 nM

B5: 24638 (Fc fusion)
chain: APTSSSTKKTQLQLEHLLLDLQMILNGISNHKNPRLARMLTFKFYMPEKATELKHLQCLEEELKPLEEALRLAPSKNFHLRPRDLISDVNVIVLELKGSETTFMCEYADETATIVEFLNRWITFSQSIISTLT
Kd (CD122:CD132 [5]): 146 nM | Kd (CD25): 1.33 nM
